Assay results published in patent EP4219720A2 (Caribou Biosciences, Inc., dated 2023).

Key:
[1] = target: T1, CasBCDE complex (Strep-tag II-HRV3C-Cse2, Cas7, Cas5, Cas6) with J3/L3 crRNAs (Escherichia coli K-12 MG1655, UniProt Q46899 2-363; Q46898 1-224; Q46897 2-199); test: reconstitution from separately purified parts; tested by plasmid DNA cleavage
T1 construct: It also holds a crRNA (J3 or L3 guide), so it is a ribonucleoprotein; Removal of the Strep tag is not described; also called Cas8-less Cascade complex; Cas8-minus Cascade complex
T1 sequence 1: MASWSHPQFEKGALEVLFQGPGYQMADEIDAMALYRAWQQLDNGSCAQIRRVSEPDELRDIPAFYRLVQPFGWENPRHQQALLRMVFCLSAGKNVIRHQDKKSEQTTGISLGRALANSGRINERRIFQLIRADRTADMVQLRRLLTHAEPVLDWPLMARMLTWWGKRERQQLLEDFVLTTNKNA
T1 sequence 2: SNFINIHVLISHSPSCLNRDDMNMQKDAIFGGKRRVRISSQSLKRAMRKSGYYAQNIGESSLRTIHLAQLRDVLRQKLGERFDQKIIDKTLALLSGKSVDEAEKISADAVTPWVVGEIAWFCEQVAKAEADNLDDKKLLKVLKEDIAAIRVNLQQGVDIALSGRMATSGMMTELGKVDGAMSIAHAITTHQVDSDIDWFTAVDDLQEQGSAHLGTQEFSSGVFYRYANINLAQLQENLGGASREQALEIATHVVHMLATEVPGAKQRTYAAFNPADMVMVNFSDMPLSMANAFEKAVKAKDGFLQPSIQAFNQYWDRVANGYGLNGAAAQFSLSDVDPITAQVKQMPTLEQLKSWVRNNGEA
T1 sequence 3: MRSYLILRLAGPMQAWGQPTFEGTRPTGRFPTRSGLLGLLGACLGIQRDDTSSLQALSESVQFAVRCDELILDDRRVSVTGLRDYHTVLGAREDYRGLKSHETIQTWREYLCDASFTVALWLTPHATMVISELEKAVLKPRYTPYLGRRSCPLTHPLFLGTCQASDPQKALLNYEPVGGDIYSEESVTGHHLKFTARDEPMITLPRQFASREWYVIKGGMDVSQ
T1 sequence 4: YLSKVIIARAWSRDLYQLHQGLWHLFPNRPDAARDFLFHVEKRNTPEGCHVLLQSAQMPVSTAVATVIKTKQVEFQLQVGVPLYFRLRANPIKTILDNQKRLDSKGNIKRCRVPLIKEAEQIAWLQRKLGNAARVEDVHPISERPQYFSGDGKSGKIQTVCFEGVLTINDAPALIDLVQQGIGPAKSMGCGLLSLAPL

[2] = target: T2, Cas8, Cas7, Cas6 and Cas5 of E. coli Type I-E Cascade with J3 crRNA (Escherichia coli K-12 MG1655, UniProt Q46901 1-502; Q46899 2-363; Q46897 2-199; Q46898 1-224); test: co-expression in E. coli, Ni-NTA capture by His6 on Cse2, SEC, Coomassie SDS-PAGE
T2 construct: They also hold the J3 crRNA; also called remaining Cascade subunits
T2 sequence 1: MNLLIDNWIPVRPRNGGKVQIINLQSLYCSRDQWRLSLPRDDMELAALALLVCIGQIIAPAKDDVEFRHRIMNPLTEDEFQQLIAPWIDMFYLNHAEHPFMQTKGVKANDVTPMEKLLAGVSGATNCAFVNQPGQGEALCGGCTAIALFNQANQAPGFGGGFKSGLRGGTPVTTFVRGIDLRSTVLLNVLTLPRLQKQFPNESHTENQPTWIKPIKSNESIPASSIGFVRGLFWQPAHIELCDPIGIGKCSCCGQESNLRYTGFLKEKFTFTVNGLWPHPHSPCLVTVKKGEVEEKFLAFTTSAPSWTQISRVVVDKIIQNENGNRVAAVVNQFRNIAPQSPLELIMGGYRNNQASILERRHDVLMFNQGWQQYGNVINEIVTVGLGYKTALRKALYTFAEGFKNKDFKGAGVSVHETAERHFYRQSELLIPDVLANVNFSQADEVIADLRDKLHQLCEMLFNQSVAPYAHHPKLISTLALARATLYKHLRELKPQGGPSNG
T2 sequence 2: T1 sequence 2
T2 sequence 3: T1 sequence 4
T2 sequence 4: T1 sequence 3

[3] = target: T3, Cas7, Cas6 and Cas5 of E. coli Type I-E Cascade with L3 crRNA (Escherichia coli K-12 MG1655, UniProt Q46899 2-363; Q46897 2-199; Q46898 1-224); test: co-expression in E. coli, Strep-Tactin capture by Strep-tag II on Cse2, SEC, Coomassie SDS-PAGE
T3 construct: They also hold the L3 crRNA; This grouping is mine
T3 sequence 1: T1 sequence 2
T3 sequence 2: T1 sequence 4
T3 sequence 3: T1 sequence 3

B1: NLS-GGS-FokISharkey-30aa-linker-Cas8 (after TEV cleavage) (other)
chain: SNMPKKKRKVQLVKSELEEKKSELRHKLKYVPHEYIELIEIARNPTQDRILEMKVMEFFMKVYGYRGEHLGGSRKPDGAIYTVGSPIDYGVIVDTKAYSGGYNLPIGQADEMQRYVEENQTRNKHINPNEWWKVYPSSVTEFKFLFVSGHFKGNYKAQLTRLNHITNCNGAVLSVEELLIGGEMIKAGTLTLEEVRRKFNNGEINFSGSETPGTSESATPESGGSGSSGGSGSSGGMNLLIDNWIPVRPRNGGKVQIINLQSLYCSRDQWRLSLPRDDMELAALALLVCIGQIIAPAKDDVEFRHRIMNPLTEDEFQQLIAPWIDMFYLNHAEHPFMQTKGVKANDVTPMEKLLAGVSGATNCAFVNQPGQGEALCGGCTAIALFNQANQAPGFGGGFKSGLRGGTPVTTFVRGIDLRSTVLLNVLTLPRLQKQFPNESHTENQPTWIKPIKSNESIPASSIGFVRGLFWQPAHIELCDPIGIGKCSCCGQESNLRYTGFLKEKFTFTVNGLWPHPHSPCLVTVKKGEVEEKFLAFTTSAPSWTQISRVVVDKIIQNENGNRVAAVVNQFRNIAPQSPLELIMGGYRNNQASILERRHDVLMFNQGWQQYGNVINEIVTVGLGYKTALRKALYTFAEGFKNKDFKGAGVSVHETAERHFYRQSELLIPDVLANVNFSQADEVIADLRDKLHQLCEMLFNQSVAPYAHHPKLISTLALARATLYKHLRELKPQGGPSNG
notes: The tag was removed with TEV protease; also called Fokl-Cas8 fusion protein
B1: binds [1].

B2: His6-HRV3C-Cse2 (other)
chain: MAEHHHHHHGALEVLFQGPGYQMADEIDAMALYRAWQQLDNGSCAQIRRVSEPDELRDIPAFYRLVQPFGWENPRHQQALLRMVFCLSAGKNVIRHQDKKSEQTTGISLGRALANSGRINERRIFQLIRADRTADMVQLRRLLTHAEPVLDWPLMARMLTWWGKRERQQLLEDFVLTTNKNA
notes: The tagged subunit by which the Cascade complex was captured on Ni-NTA resin
B2: binds [2].

B3: Strep-tag II-HRV3C-Cse2 (other)
chain: T1 sequence 1
notes: The tagged subunit by which the CasBCDE complex was captured on Strep-Tactin resin
B3: binds [3].
